These results are taken from the supplement of paper PMC5998384.

Data set [1] has as its system HeLa Kyoto. Description: solubility in G1/S (NP-40 vs SDS abundance) (log2 ratio); higher = more soluble. Conditions: cell cycle stage: G1/S.
Data set [2] concerns HeLa Kyoto. Description: thermal stability score vs G1/S (z-score of summed log2 fold changes over temperatures); higher = more thermally stable than in G1/S.
The test system of data set [3] is HeLa Kyoto. As to the kind of experiment: melting temperature (median over replicates), in situ; higher = more thermally stable.
The subject of data set [4] is HeLa Kyoto. As to the kind of experiment: solubility change mitosis vs G1/S (difference of NP-40 vs SDS log2 ratios) (log2 ratio difference); higher = more soluble in mitosis.
[5] abbreviates: cell cycle stage: early G1 (4.5 h after nocodazole release).
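For melting temperature (median over replicates), in situ in this document: HeLa Kyoto cells synchronized by double thymidine or nocodazole block, proteins quantified by TMT10plex mass spectrometry, three independent biological replicates.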
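For solubility change mitosis vs G1/S (difference of NP-40 vs SDS log2 ratios) in this document: synchronized HeLa Kyoto cells (double thymidine block for G1/S, nocodazole release for mitosis), protein amounts in NP-40 versus SDS lysates quantified by mass spectrometry, three biological replicates.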
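For solubility in G1/S (NP-40 vs SDS abundance) in this document: HeLa Kyoto cells arrested at G1/S by double thymidine block, proteins quantified by TMT10plex mass spectrometry in mild NP-40 versus SDS extracts, three biological replicates.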
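For thermal stability score vs G1/S (z-score of summed log2 fold changes over temperatures) in this document: synchronized HeLa Kyoto cells, proteins quantified by TMT10plex mass spectrometry, three biological replicates, mitosis taken 0.5 h after nocodazole release, G1/S directly after double thymidine block.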

Take “MPAERPAGSGGSEAPAMVEQLDTAVITPAMLEEEEQLEAAGLERERKMLEKARMSWDRESTEIRYRRLQHLLEKSNIYSKFLLTKMEQQQLEEQKKKEKLERKKESLKVKKGKNSIDASEEKPVMRKKRGREDESYNISEVMSKEEILSVAKKNKKENEDENSSSTNLCVEDLQKNKDSNSIIKDRLSETVRQNTKFFFDPVRKCNGQPVPFQQPKHFTGGVMRWYQVEGMEWLRMLWENGINGILADEMGLGKTVQCIATIALMIQRGVPGPFLVCGPLSTLPNWMAEFKRFTPDIPTMLYHGTQEERQKLVRNIYKRKGTLQIHPVVITSFEIAMRDRNALQHCYWKYLIVDEGHRIKNMKCRLIRELKRFNADNKLLLTGTPLQNNLSELWSLLNFLLPDVFDDLKSFESWFDITSLSETAEDIIAKEREQNVLHMLHQILTPFLLRRLKSDVALEVPPKREVVVYAPLSKKQEIFYTAIVNRTIANMFGSSEKETIELSPTGRPKRRTRKSINYSKIDDFPNELEKLISQIQPEVDRERAVVEVNIPVESEVNLKLQNIMMLLRKCCNHPYLIEYPIDPVTQEFKIDEELVTNSGKFLILDRMLPELKKRGHKVLLFSQMTSMLDILMDYCHLRDFNFSRLDGSMSYSEREKNMHSFNTDPEVFIFLVSTRAGGLGINLTAADTVIIYDSDWNPQSDLQAQDRCHRIGQTKPVVVYRLVTANTIDQKIVERAAAKRKLEKLIIHKNHFKGGQSGLNLSKNFLDPKELMELLKSRDYEREIKGSREKVISDKDLELLLDRSDLIDQMNASGPIKEKMGIFKILENSEDSSPECLF [HELLS]”: the “solubility in G1/S (log2)” value in data set [1] is -0.204. For the same sequence, the thermal stability score in data set [2] (setting [5]) turned out to be 1.77; in data set [2] (cell cycle stage: mitosis), 3.02. For the same sequence, the melting temperature was 46.2 °C in data set [3] (cell cycle stage: G1/S) and 48.2 °C in data set [3] (cell cycle stage: mitosis). The “solubility change mitosis (log2)” value in data set [4] amounted to 0.252.
Regarding “MPAHLLQDDISSSYTTTTTITAPPSRVLQNGGDKLETMPLYLEDDIRPDIKDDIYDPTYKDKEGPSPKVEYVWRNIILMSLLHLGALYGITLIPTCKFYTWLWGVFYYFVSALGITAGAHRLWSHRSYKARLPLRLFLIIANTMAFQNDVYEWARDHRAHHKFSETHADPHNSRRGFFFSHVGWLLVRKHPAVKEKGSTLDLSDLEAEKLVMFQRRYYKPGLLMMCFILPTLVPWYFWGETFQNSVFVATFLRYAVVLNATWLVNSAAHLFGYRPYDKNISPRENILVSLGAVGEGFHNYHHSFPYDYSASEYRWHINFTTFFIDCMAALGLAYDRKKVSKAAILARIKRTGDGNYKSG [SCD]”, in data set [1], the “solubility in G1/S (log2)” value is -0.126. The figures for the thermal stability score in data set [2] (setting [5]) and in data set [2] (cell cycle stage: mitosis) were 1.76 and -0.899, respectively. Besides, the melting temperature stood at 50.5 °C in data set [3] (cell cycle stage: G1/S) and 51.2 °C in data set [3] (cell cycle stage: mitosis). In data set [4], the “solubility change mitosis (log2)” value is -0.151.
For the sequence “MPAPEQASLVEEGQPQTRQEAASTGPGMEPETTATTILASVKEQELQFQRLTRELEVERQIVASQLERCRLGAESPSIASTSSTEKSFPWRSTDVPNTGVSKPRVSDAVQPNNYLIRTEPEQGTLYSPEQTSLHESEGSLGNSRSSTQMNSYSDSGYQEAGSFHNSQNVSKADNRQQHSFIGSTNNHVVRNSRAEGQTLVQPSVANRAMRRVSSVPSRAQSPSYVISTGVSPSRGSLRTSLGSGFGSPSVTDPRPLNPSAYSSTTLPAARAASPYSQRPASPTAIRRIGSVTSRQTSNPNGPTPQYQTTARVGSPLTLTDAQTRVASPSQGQVGSSSPKRSGMTAVPQHLGPSLQRTVHDMEQFGQQQYDIYERMVPPRPDSLTGLRSSYASQHSQLGQDLRSAVSPDLHITPIYEGRTYYSPVYRSPNHGTVELQGSQTALYRTGSVGIGNLQRTSSQRSTLTYQRNNYALNTTATYAEPYRPIQYRVQECNYNRLQHAVPADDGTTRSPSIDSIQKDPREFAWRDPELPEVIHMLQHQFPSVQANAAAYLQHLCFGDNKVKMEVCRLGGIKHLVDLLDHRVLEVQKNACGALRNLVFGKSTDENKIAMKNVGGIPALLRLLRKSIDAEVRELVTGVLWNLSSCDAVKMTIIRDALSTLTNTVIVPHSGWNNSSFDDDHKIKFQTSLVLRNTTGCLRNLSSAGEEARKQMRSCEGLVDSLLYVIHTCVNTSDYDSKTVENCVCTLRNLSYRLELEVPQARLLGLNELDDLLGKESPSKDSEPSCWGKKKKKKKRTPQEDQWDGVGPIPGLSKSPKGVEMLWHPSVVKPYLTLLAESSNPATLEGSAGSLQNLSAGNWKFAAYIRAAVRKEKGLPILVELLRMDNDRVVSSVATALRNMALDVRNKELIGKYAMRDLVNRLPGGNGPSVLSDETMAAICCALHEVTSKNMENAKALADSGGIEKLVNITKGRGDRSSLKVVKAAAQVLNTLWQYRDLRSIYKKDGWNQNHFITPVSTLERDRFKSHPSLSTTNQQMSPIIQSVGSTSSSPALLGIRDPRSEYDRTQPPMQYYNSQGDATHKGLYPGSSKPSPIYISSYSSPAREQNRRLQHQQLYYSQDDSNRKNFDAYRLYLQSPHSYEDPYFDDRVHFPASTDYSTQYGLKSTTNYVDFYSTKRPSYRAEQYPGSPDSWV [PKP4]”, the “solubility in G1/S (log2)” value in data set [1] is -0.319. Moreover, the thermal stability score in data set [2] (setting [5]) was -0.193; in data set [2] (cell cycle stage: mitosis) it was -0.925. The sequence also came in with a melting temperature in data set [3] (cell cycle stage: G1/S) of 50.6 °C. For the same sequence, the “solubility change mitosis (log2)” value in data set [4] came to 0.0763.
On to “MPATRKPMRYGHTEGHTEVCFDDSGSFIVTCGSDGDVRIWEDLDDDDPKFINVGEKAYSCALKSGKLVTAVSNNTIQVHTFPEGVPDGILTRFTTNANHVVFNGDGTKIAAGSSDFLVKIVDVMDSSQQKTFRGHDAPVLSLSFDPKDIFLASASCDGSVRVWQISDQTCAISWPLLQKCNDVINAKSICRLAWQPKSGKLLAIPVEKSVKLYRRESWSHQFDLSDNFISQTLNIVTWSPCGQYLAAGSINGLIIVWNVETKDCMERVKHEKGYAICGLAWHPTCGRISYTDAEGNLGLLENVCDPSGKTSSSKVSSRVEKDYNDLFDGDDMSNAGDFLNDNAVEIPSFSKGIINDDEDDEDLMMASGRPRQRSHILEDDENSVDISMLKTGSSLLKEEEEDGQEGSIHNLPLVTSQRPFYDGPMPTPRQKPFQSGSTPLHLTHRFMVWNSIGIIRCYNDEQDNAIDVEFHDTSIHHATHLSNTLNYTIADLSHEAILLACESTDELASKLHCLHFSSWDSSKEWIIDLPQNEDIEAICLGQGWAAAATSALLLRLFTIGGVQKEVFSLAGPVVSMAGHGEQLFIVYHRGTGFDGDQCLGVQLLELGKKKKQILHGDPLPLTRKSYLAWIGFSAEGTPCYVDSEGIVRMLNRGLGNTWTPICNTREHCKGKSDHYWVVGIHENPQQLRCIPCKGSRFPPTLPRPAVAILSFKLPYCQIATEKGQMEEQFWRSVIFHNHLDYLAKNGYEYEESTKNQATKEQQELLMKMLALSCKLEREFRCVELADLMTQNAVNLAIKYASRSRKLILAQKLSELAVEKAAELTATQVEEEEEEEDFRKKLNAGYSNTATEWSQPRFRNQVEEDAEDSGEADDEEKPEIHKPGQNSFSKSTNSSDVSAKSGAVTFSSQGRVNPFKVSASSKEPAMSMNSARSTNILDNMGKSSKKSTALSRTTNNEKSPIIKPLIPKPKPKQASAASYFQKRNSQTNKTEEVKEENLKNVLSETPAICPPQNTENQRPKTGFQMWLEENRSNILSDNPDFSDEADIIKEGMIRFRVLSTEERKVWANKAKGETASEGTEAKKRKRVVDESDETENQEEKAKENLNLSKKQKPLDFSTNQKLSAFAFKQE [WDHD1]”, for which, in data set [1], the “solubility in G1/S (log2)” value was -0.1. Also, the figures for the thermal stability score in data set [2] (setting [5]) and in data set [2] (cell cycle stage: mitosis) were 2.58 and 6.16, respectively. Moreover, the melting temperature stood at 47.9 °C in data set [3] (cell cycle stage: G1/S) and 49.6 °C in data set [3] (cell cycle stage: mitosis). Further, the “solubility change mitosis (log2)” value in data set [4] was -0.0991.
Regarding “MPAVDKLLLEEALQDSPQTRSLLSVFEEDAGTLTDYTNQLLQAMQRVYGAQNEMCLATQQLSKQLLAYEKQNFALGKGDEEVISTLHYFSKVVDELNLLHTELAKQLADTMVLPIIQFREKDLTEVSTLKDLFGLASNEHDLSMAKYSRLPKKKENEKVKTEVGKEVAAARRKQHLSSLQYYCALNALQYRKQMAMMEPMIGFAHGQINFFKKGAEMFSKRMDSFLSSVADMVQSIQVELEAEAEKMRVSQQELLSVDESVYTPDSDVAAPQINRNLIQKAGYLNLRNKTGLVTTTWERLYFFTQGGNLMCQPRGAVAGGLIQDLDNCSVMAVDCEDRRYCFQITTPNGKSGIILQAESRKENEEWICAINNISRQIYLTDNPEAVAIKLNQTALQAVTPITSFGKKQESSCPSQNLKNSEMENENDKIVPKATASLPEAEELIAPGTPIQFDIVLPATEFLDQNRGSRRTNPFGETEDESFPEAEDSLLQQMFIVRFLGSMAVKTDSTTEVIYEAMRQVLAARAIHNIFRMTESHLMVTSQSLRLIDPQTQVSRANFELTSVTQFAAHQENKRLVGFVIRVPESTGEESLSTYIFESNSEGEKICYAINLGKEIIEVQKDPEALAQLMLSIPLTNDGKYVLLNDQPDDDDGNPNEHRGAESEA [APPL2]”, the “solubility in G1/S (log2)” value in data set [1] stood at 0.193. The thermal stability score was -0.102 in data set [2] (setting [5]) and 0.993 in data set [2] (cell cycle stage: mitosis). Further, the melting temperature in data set [3] (cell cycle stage: G1/S) turned out to be 49.1 °C; in data set [3] (cell cycle stage: mitosis), 49.5 °C. In data set [4], the “solubility change mitosis (log2)” value is -0.0416.
With “MPAVSKGDGMRGLAVFISDIRNCKSKEAEIKRINKELANIRSKFKGDKALDGYSKKKYVCKLLFIFLLGHDIDFGHMEAVNLLSSNKYTEKQIGYLFISVLVNSNSELIRLINNAIKNDLASRNPTFMCLALHCIANVGSREMGEAFAADIPRILVAGDSMDSVKQSAALCLLRLYKASPDLVPMGEWTARVVHLLNDQHMGVVTAAVSLITCLCKKNPDDFKTCVSLAVSRLSRIVSSASTDLQDYTYYFVPAPWLSVKLLRLLQCYPPPEDAAVKGRLVECLETVLNKAQEPPKSKKVQHSNAKNAILFETISLIIHYDSEPNLLVRACNQLGQFLQHRETNLRYLALESMCTLASSEFSHEAVKTHIDTVINALKTERDVSVRQRAADLLYAMCDRSNAKQIVSEMLRYLETADYAIREEIVLKVAILAEKYAVDYSWYVDTILNLIRIAGDYVSEEVWYRVLQIVTNRDDVQGYAAKTVFEALQAPACHENMVKVGGYILGEFGNLIAGDPRSSPPVQFSLLHSKFHLCSVATRALLLSTYIKFINLFPETKATIQGVLRAGSQLRNADVELQQRAVEYLTLSSVASTDVLATVLEEMPPFPERESSILAKLKRKKGPGAGSALDDGRRDPSSNDINGGMEPTPSTVSTPSPSADLLGLRAAPPPAAPPASAGAGNLLVDVFDGPAAQPSLGPTPEEAFLSELEPPAPESPMALLADPAPAADPGPEDIGPPIPEADELLNKFVCKNNGVLFENQLLQIGVKSEFRQNLGRMYLFYGNKTSVQFQNFSPTVVHPGDLQTQLAVQTKRVAAQVDGGAQVQQVLNIECLRDFLTPPLLSVRFRYGGAPQALTLKLPVTINKFFQPTEMAAQDFFQRWKQLSLPQQEAQKIFKANHPMDAEVTKAKLLGFGSALLDNVDPNPENFVGAGIIQTKALQVGCLLRLEPNAQAQMYRLTLRTSKEPVSRHLCELLAQQF [AP2A1]”, the “solubility in G1/S (log2)” value in data set [1] is -0.0177. Also, the figures for the thermal stability score in data set [2] (setting [5]) and in data set [2] (cell cycle stage: mitosis) were 0.878 and 2.23, respectively. The results for the melting temperature in data set [3] (cell cycle stage: G1/S) and in data set [3] (cell cycle stage: mitosis) were 52 °C and 51.9 °C, respectively. For the same sequence, in data set [4], the “solubility change mitosis (log2)” value was -0.103.
As to “MPEAPPLLLAAVLLGLVLLVVLLLLLRHWGWGLCLIGWNEFILQPIHNLLMGDTKEQRILNHVLQHAEPGNAQSVLEAIDTYCEQKEWAMNVGDKKGKIVDAVIQEHQPSVLLELGAYCGYSAVRMARLLSPGARLITIEINPDCAAITQRMVDFAGVKDKVTLVVGASQDIIPQLKKKYDVDTLDMVFLDHWKDRYLPDTLLLEECGLLRKGTVLLADNVICPGAPDFLAHVRGSSCFECTHYQSFLEYREVVDGLEKAIYKGPGSEAGP [COMT]”, the “solubility in G1/S (log2)” value in data set [1] was -0.0917. For the same sequence, the results for the thermal stability score in data set [2] (setting [5]) and in data set [2] (cell cycle stage: mitosis) were 3.01 and 5.26, respectively. The melting temperature in data set [3] (cell cycle stage: G1/S) was found to be 52.9 °C; in data set [3] (cell cycle stage: mitosis) it was 54.2 °C. In addition, the “solubility change mitosis (log2)” value in data set [4] is -0.128.
